# Values quoted from earlier work, collected in publication PMC6238587.
# Target: PDI (Homo sapiens) (UniProt P07237)
# Test: surface plasmon resonance
# Conditions: cited from earlier work
# Sequence of PDI (Homo sapiens) (P07237 18-508): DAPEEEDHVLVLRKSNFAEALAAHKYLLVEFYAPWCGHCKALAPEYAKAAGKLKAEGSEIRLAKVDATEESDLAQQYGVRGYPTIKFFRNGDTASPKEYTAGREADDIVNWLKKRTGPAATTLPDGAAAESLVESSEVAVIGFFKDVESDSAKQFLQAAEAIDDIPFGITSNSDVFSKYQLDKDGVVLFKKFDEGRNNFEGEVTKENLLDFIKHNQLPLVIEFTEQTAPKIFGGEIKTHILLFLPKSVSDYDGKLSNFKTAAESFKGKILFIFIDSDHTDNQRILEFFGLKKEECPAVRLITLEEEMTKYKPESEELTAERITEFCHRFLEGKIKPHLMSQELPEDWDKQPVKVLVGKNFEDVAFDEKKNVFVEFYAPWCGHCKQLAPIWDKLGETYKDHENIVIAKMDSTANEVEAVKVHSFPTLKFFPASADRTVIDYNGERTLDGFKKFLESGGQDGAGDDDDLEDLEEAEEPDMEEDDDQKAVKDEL
substance,measurement,value
Ero1α (from UniProt Q96HE7),Kd,2100 nM
